Experimental data published in US20250109190A1 (BYOMASS, published 2025).
Changes are numbered by the printed parent chain.

T1: Activin B (UniProt P09529 293-407)
T1 sequence (looked up): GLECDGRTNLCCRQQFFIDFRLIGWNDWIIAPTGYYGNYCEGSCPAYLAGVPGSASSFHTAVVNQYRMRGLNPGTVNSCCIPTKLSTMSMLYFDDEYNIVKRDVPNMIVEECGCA

T2: human GDF10 (human, UniProt P55107 369-478)
T2 sequence (looked up): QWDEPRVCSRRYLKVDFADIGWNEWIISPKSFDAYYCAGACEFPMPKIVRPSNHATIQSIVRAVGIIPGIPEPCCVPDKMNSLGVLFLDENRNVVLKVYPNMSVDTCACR

T3: BMP10 (UniProt O95393 317-424)
T3 sequence (looked up): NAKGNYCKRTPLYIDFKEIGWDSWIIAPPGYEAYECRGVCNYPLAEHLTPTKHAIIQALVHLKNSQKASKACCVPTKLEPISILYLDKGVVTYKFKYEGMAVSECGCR

T4: BMP9 (UniProt Q9UK05 320-429)
T4 sequence (looked up): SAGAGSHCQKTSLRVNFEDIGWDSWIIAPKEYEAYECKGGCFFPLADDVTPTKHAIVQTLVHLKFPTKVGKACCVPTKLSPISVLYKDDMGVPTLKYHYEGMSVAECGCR

T5: human GDNF (human, UniProt P39905 78-211, limits assumed)
T5 sequence (looked up): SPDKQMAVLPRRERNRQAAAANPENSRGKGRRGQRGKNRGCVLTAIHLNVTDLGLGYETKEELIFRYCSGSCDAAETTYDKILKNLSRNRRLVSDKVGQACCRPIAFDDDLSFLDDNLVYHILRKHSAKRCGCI

T6: GDF15 Fc (UniProt Q99988 197-308, limits assumed)
T6 construct: species not given; not shown: Fc part of the fusion
T6 sequence (looked up): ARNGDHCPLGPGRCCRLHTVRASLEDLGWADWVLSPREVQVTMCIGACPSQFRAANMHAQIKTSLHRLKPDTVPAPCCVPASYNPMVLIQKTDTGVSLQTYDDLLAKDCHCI

B1: Antibody Q (Clone Q), IgG (antibody, V domains shown)
VH: QVQLVQSGAEVKKPGSSVKVSCKASGGSFSPYTWSWVRQAPGQGLEWMGGIIPISGTANTAQKFQGRVTITADESTSTAYMELSSLRSEDTAVYYCARGGPLSGWRASYYYWGQGTLVTVSS
VL: not shown
notes: IgG
B2: Antibody R (Clone R), IgG (antibody, V domains shown)
VH: B1 VH with W34I, P53L, I54T, T60Y
VL: not shown
notes: IgG
B3: Antibody I (Clone I), IgG (antibody, V domains shown)
VH: QVQLVQSGAEVKKPGSSVKVSCKASGGTFSNYAISWVRQAPGQGLEWMGYIIPFFGTANYAQKFQGRVTITADESTSTAYMELSSLRSEDTAVYYCARGGSGYSTSWGSSLYWGQGTLVTVSS
VL: EIVLTQSPGTLSLSPGERATLSCRASQSVSSSYLAWYQQKPGQAPRLLIYGASYRATGIPDRFSGSGSGTDFTLTISRLEPEDFAVYYCLQSGVFPYTFGGGTKVEIKR
notes: IgG
B4: Antibody K (Clone K), IgG (antibody, V domains shown)
VH: QVQLVQSGAEVKKPGSSVKVSCKASGGTSSSYAISWVRQAPGQGLEWMGYIIPAFGTANYAQKFQGRVTITADESTSTAYMELSSLRSEDTAVYYCARPVRTYPLGKYFYHWGQGTLVTVSS
VL: EIVLTQSPATLSLSPGERATLSCRASQSVSSYLAWYQQKPGQAPRLLIYDASNRATGIPARFSGSGSGTDFTLTISSLEPEDFAVYYCQQDSIFPPYTFGGGTKVEIKR
notes: IgG

Target: T1, Activin B
Test: BLI Octet; IgG, avid

binding result | Binder
no binding (tested: 100 nM) | B1
no binding (tested: 100 nM) | B2
no binding (tested: 100 nM) | B3
no binding (tested: 100 nM) | B4

Target: T2, human GDF10
Test: BLI Octet; IgG, avid

binding result | Binder
no binding (tested: 100 nM) | B1
no binding (tested: 100 nM) | B2
no binding (tested: 100 nM) | B3
no binding (tested: 100 nM) | B4

Target: T3, BMP10
Test: BLI Octet; IgG, avid

binding result | Binder
no binding (tested: 100 nM) | B1
no binding (tested: 100 nM) | B2
no binding (tested: 100 nM) | B3
no binding (tested: 100 nM) | B4

Target: T4, BMP9
Test: BLI Octet; IgG, avid

binding result | Binder
no binding (tested: 100 nM) | B1
no binding (tested: 100 nM) | B2
no binding (tested: 100 nM) | B3
no binding (tested: 100 nM) | B4

Target: T5, human GDNF
Test: BLI Octet; IgG, avid

binding result | Binder
no binding (tested: 100 nM) | B1
no binding (tested: 100 nM) | B2
no binding (tested: 100 nM) | B3
no binding (tested: 100 nM) | B4

Target: T6, GDF15 Fc
Test: BLI Octet; IgG, avid

binding result | Binder
no binding (tested: 100 nM) | B1
no binding (tested: 100 nM) | B2
no binding (tested: 100 nM) | B3
no binding (tested: 100 nM) | B4

Target: human GDF11 (human, UniProt O95390 299-407)
Test: BLI Octet; IgG, avid

Sequence of human GDF11 (O95390 299-407 limits assumed): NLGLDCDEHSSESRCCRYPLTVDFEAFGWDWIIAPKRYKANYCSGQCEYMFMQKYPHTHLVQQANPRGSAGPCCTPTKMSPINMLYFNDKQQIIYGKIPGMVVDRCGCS

binding result | Binder
no binding (tested: 100 nM) | B1
no binding (tested: 100 nM) | B2
no binding (tested: 100 nM) | B3
no binding (tested: 100 nM) | B4

Target: human GDF8 (human, UniProt O14793 267-375)
Test: BLI Octet; IgG, avid

binding result | Binder
no binding (tested: 100 nM) | B1
no binding (tested: 100 nM) | B2
no binding (tested: 100 nM) | B3
no binding (tested: 100 nM) | B4
